The source of these data is US20210364527A1 (QUANTUM SI, published 2021).

Like-named read-outs stand apart in the source and are kept apart here.

Assay in all cases: BLI heatmap
In experiment [1] the target is T1, F peptide FAKLDEESILKQK (XAKLDEESILKQK, X = F).
T1 construct: Immobilized on the biolayer interferometry sensor
T1 peptide: FAKLDEESILKQK

The target in experiment [2] is T2, IA peptide IAKLDEESILKQK (XAKLDEESILKQK, X = I).
T2 construct: Immobilized on the biolayer interferometry sensor
T2 peptide: IAKLDEESILKQK

Experiment [3] concerns the target T3, LA peptide LAKLDEESILKQK (XAKLDEESILKQK, X = L).
T3 construct: Immobilized on the biolayer interferometry sensor
T3 peptide: LAKLDEESILKQK

The target in experiment [4] is T4, VA peptide VAKLDEESILKQK (XAKLDEESILKQK, X = V).
T4 construct: Immobilized on the biolayer interferometry sensor
T4 peptide: VAKLDEESILKQK

The target in experiment [5] is T1, F peptide FAKLDEESILKQK (XAKLDEESILKQK, …).
The target in experiment [6] is T2, IA peptide IAKLDEESILKQK ….
Experiment [7] addresses T5, W peptide WAKLDEESILKQK (XAKLDEESILKQK, X = W).
T5 construct: Immobilized on the biolayer interferometry sensor
T5 peptide: WAKLDEESILKQK

The target of experiment [8] is T3, LA peptide LAKLDEESILKQK ….

B1: PS548 (other)
chain: MSDTITLPEEKTDVRTKRQPPYHVILLNDDDHTYQYVIYMLQTLFGHPPETGFKMAQEVDKTGRVIVDTTSLERAELKRDQIHAFGPDPYIERCKGSMSAMIEPSE
Turning to B1, the binding result is “no binding” in experiment [1], “binds” in experiment [2] and “binds” in experiment [3].

B2: PS556 (other)
chain: MGDSNTSVAEPGEVTVVTTKPAPKKAKPKRQPKYHVVLWNDDDHTYEYVILMMHELFGHPVEKGFQIAKTVDADGRAICLTTTKEHAELKRDQIHAYGKDELIARCRGSMSSTIEPEC
In the case of B2, the results for the binding result in experiment [1], in experiment [2] and in experiment [3] were “no binding”, “binds” and “binds”, respectively.

B3: PS570 (other)
chain: MTGAGASQPSILEETEVRPRLSDGPWKVVLWDDDFHTYEYVIEMLMDVCQMPWEKAFQHAVEVDTRKKTIVFSGELEHAEFVHERILNYGPDPRMGSSKGSMTATLEQ
As to B3, the results for the binding result in experiment [1], in experiment [2] and in experiment [3] were “no binding”, “binds” and “binds”, respectively.

B4: PS422 (other)
chain: MTQIKPQTIPDTDVISQTQSDWQMPDLYAVIMHNDDYTTMDFVVFLLNAVFDKPIEQAYQLMMQIHQTGRAVVAILPYEIAEMKVDEATSLAEQEQFPLFISIEQA
As to B4, the binding result in experiment [4] was “no binding”; in experiment [5] it was “binds”; in experiment [6], “no binding”.

B5: PS566 (other)
chain: MSSPSSLDDVQVSTSRAKPANETRTRKQPPYAVIVENDDHHTFLYVIEALMKVCGHAPEKGFVLAQQIHTQGKAMVWSGTLELAELKRDQLRGFGPDNYAPRPVTFPLGVTIEPLP
Turning to B5, the binding result in experiment [1], in experiment [2] and in experiment [3] was “binds” each time.

B6: PS565 (other)
chain: MSEFDHEHSGDTSVADPIVTTKTAPKPQKHAENETETRRQPPYNVIILNDEEHTFDYVIELLCKVFRHSLATAQELTWRIHLTGRAVVLTTHKELAELKRDQVLAYGPDPRMSVSKGPLDCFIEPAPGG
For B6, the binding result in experiment [1], in experiment [2] and in experiment [3] was “binds” throughout.

B7: PS560 (other)
chain: MTETITTPAERTQTQAEPRSDRAWLWNVVLLDDDEHTYEYVIRMLHTLFGMPVERAFRLAEEVDARGRAVVLTTHKEHAELKRDQVHAFGKDALIASCAGSMSAVLEPAECGSDDED
B7: the figures for the binding result in experiment [1], in experiment [2] and in experiment [3] were “no binding”, “binds” and “binds”, respectively.

B8: PS397 (other)
chain: MSDNEVAPKRKTRVKPKLERPRLYKVILVNDDYTPRDFVVMVLKAIFRMSEEAGYRVMMTAHKLGTSVVVVCARDIAETKAKEATDLGKEAGFPLMFTTEPEE
As to B8, the binding result in experiment [7] was “binds”; in experiment [4] it was “no binding”; in experiment [5], “binds”; in experiment [6], “no binding”; in experiment [8], “no binding”.

B9: PS433 (other)
chain: MMSSLKECSIQALPSLDEKTKTEEDLSVPWKVIVLNDPVNLMSYVVMVFRKVFGYNENKATKHMMEVHQLGKSVLWTGQREEAECYAYQLQRWRLQTILEKDD
B9: the binding result is “no binding” in experiment [4], “binds” in experiment [5] and “no binding” in experiment [6].

B10: PS374 (other)
chain: MRWEDPLAAEPVTPGVAPVVEEETDAAVETPWRVILYDDDIHTFEEVILQLMKATGCTPEQGERHAWTVHTRGKDCVYQGDFFDCFRVQGVLREIQLVTEIEG
B10: the binding result is “binds” in experiment [7], “no binding” in experiment [4], “binds” in experiment [5] and “no binding” in experiment [6].

B11: PS388 (other)
chain: MVTTLSADVYGMATAPTVAPERSNQVVRKTYPNYKVIVLNDDFNTFQHVAECLMKYIPGMSSDRAWDLTNQVHYEGQAIVWVGPQEPAELYHQQLRRAGLTMAPLEAA
In the case of B11, the binding result in experiment [7] was “no binding”; in experiment [4] it was “no binding”; in experiment [6] it was “no binding”; in experiment [8], “binds”.

B12: PS404 (other)
chain: MPVSVTAPQTKTKTKPKVERPKLYKVILVNDDFTPREFVVRVLKAEFRMSEDQAAKVMMTAHQRGVCVVAVFTRDVAETKATRATDAGRAKGYPLLFTTEPEE
In the case of B12, the binding result in experiment [7] is recorded as “binds”; in experiment [4], “no binding”; in experiment [5] it was “binds”; in experiment [6], “no binding”; in experiment [8], “no binding”.

B13: PS390 (other)
chain: MLSIAAVTEAPSKGVQTADPKTVRKPYPNYKVIVLNDDFNTFQHVSSCLLKYIPGMSEARAWELTNQVHFEGLAVVWVGPQEQAELYYAQLKNAGLTMAPPEPA
For the molecule B13, the binding result in experiment [7] was “no binding”; in experiment [4] it was “no binding”; in experiment [5], “binds”; in experiment [6], “no binding”; in experiment [8], “binds”.

B14: PS578 (other)
chain: MSGTVVESKPRNSTQLAPRWKVIVHDDPVTTFDFVLGVLRRVFAKPPGEARRITREAHDTGSALVDVLALEQAEFRRDQAHSLARAEGFPLTLTLEPAD
In the case of B14, the binding result in experiment [1] and in experiment [3] was “binds” in each case.

B15: PS575 (other)
chain: MASTQTPDLNEITEESTKSTGGPWRVVLWDDNEHTYEYVIEMLMEICTMTVEKAFLHAVQVDQEKRTVVFSGEFEHAEHVQERILTYGADPRMSNSKGSMSATLEK
Take B15: the binding result is recorded as “no binding” in experiment [1], “binds” in experiment [2] and “binds” in experiment [3].

B16: PS549 (other)
chain: MSESITTLPKKSRRLKEEEEQKTKRQPPYNVILLNDDDHTFEYVIFMLQKLFGHPPERGMQMAKEVHTTGRVIVMTTALELAELKRDQIHAFGPDPLIDRCKGSMSATIEPAPI
With B16, the binding result is “no binding” in experiment [1], “binds” in experiment [2] and “binds” in experiment [3].

B17: PS550 (other)
chain: MPTFTEPEVVNDTRILPPYHVILLNDDDHTYEYVIHMLQTLFGHPQERGFQLAVEVDKKGKAIVFTTSKEHAEFKRDQIHAFGADPLSSKNCKGSMSAVIEPSF
Regarding B17, the binding result in experiment [3] is “binds”.

B18: PS389 (other)
chain: MLNSAAFKAASASPVIAPERSGQVTQKPYPTYKVIVLNDDFNTFQHVHDCLVKYIPGMTSDRAWQLTHQVHNDGQAIVWVGPQEQAELYHQQLSRAGLTMAPIEAA
Consider B18, for which the binding result in experiment [7] was “no binding”; in experiment [4], “no binding”; in experiment [6] it was “no binding”; in experiment [8] it was “binds”.

B19: PS392 (other)
chain: MSVEIIEKRSTVRKLAPRYRVLLHNDDFNPMEYVVQTLMATVPSLTQPQAVNVMMEAHTNGMGLVIVCALEHAEFYAETLNNHGLGSSIEPDD
Regarding B19, the binding result was “no binding” in experiment [4], “binds” in experiment [5], “no binding” in experiment [6] and “no binding” in experiment [8].

B20: PS414 (other)
chain: MQAAGNEPPDPQNPGDVGNGGDGGNQDGSNTGVVVKTRTRTRKPAMYKVLMLNDDYTPMEFVVHVLERFFQKNREEATRIMLHVHRRGVGVCGVYTYEVAETKVTQVMDLARQNQHPLQCTIEKE
As for B20, the binding result in experiment [7] was “binds”; in experiment [4], “no binding”; in experiment [5], “binds”; in experiment [6], “no binding”.

B21: PS425 (other)
chain: MTHYFSNILRDQESPKINPKELEQIDVLEEKEHQIILYNDDVNTFEHVIDCLVKICEHNYLQAEQCAYIVHHSGKCSVKTGSLDELVPKCNALLEEGLSAEVV
Turning to B21, the binding result in experiment [4] is reported as “no binding”; in experiment [5] it was “binds”; in experiment [6] it was “no binding”.

B22: PS546 (other)
chain: MSDTITLPGRPEVERDERTRRQPPYNVILHNDDDHTFEYVIVMLNQLFGYPPEKGYEMAKEVHLNGRVIVLTTSKEHAELKRDQIHAFGPDPFSSKDCKGSMSASIEPAY
Take B22: the binding result was “no binding” in experiment [1], “binds” in experiment [2] and “binds” in experiment [3].
